The results in this text go back to doi:10.1101/2021.06.22.449466 (bioRxiv, 2021).

Experiment [1] has as its target T1, Human RPA (heterotrimeric RPA complex: RPA70, RPA32 and RPA14 subunits) (human, UniProt P27694;P15927;P35244). Description: BLI. On the technique in general: In BLI a coated tip is dipped into the sample, and binding shifts an interference pattern.
Experiment [2] concerns the target T1, Human RPA (heterotrimeric RPA complex: …). Kind of experiment: BLI. The source holds these as a separate data set.

Where two headings read alike, the source gives them in different places.

T1 sequence (P27694 whole entry, chain 1 of 3): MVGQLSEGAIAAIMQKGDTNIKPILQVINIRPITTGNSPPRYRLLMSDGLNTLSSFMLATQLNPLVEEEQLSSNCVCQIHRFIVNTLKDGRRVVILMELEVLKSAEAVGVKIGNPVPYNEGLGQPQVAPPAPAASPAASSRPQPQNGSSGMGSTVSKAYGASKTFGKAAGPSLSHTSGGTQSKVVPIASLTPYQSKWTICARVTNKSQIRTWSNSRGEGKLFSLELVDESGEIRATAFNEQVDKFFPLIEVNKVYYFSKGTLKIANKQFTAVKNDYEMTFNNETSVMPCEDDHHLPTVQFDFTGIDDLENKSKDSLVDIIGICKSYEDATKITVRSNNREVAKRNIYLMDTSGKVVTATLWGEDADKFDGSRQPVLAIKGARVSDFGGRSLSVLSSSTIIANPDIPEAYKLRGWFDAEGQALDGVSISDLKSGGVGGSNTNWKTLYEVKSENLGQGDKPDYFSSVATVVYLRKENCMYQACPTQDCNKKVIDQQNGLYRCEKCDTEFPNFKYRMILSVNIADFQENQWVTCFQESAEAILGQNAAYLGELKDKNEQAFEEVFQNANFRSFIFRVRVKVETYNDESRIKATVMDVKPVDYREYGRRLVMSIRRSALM
T1 sequence (P15927 whole entry, chain 2 of 3): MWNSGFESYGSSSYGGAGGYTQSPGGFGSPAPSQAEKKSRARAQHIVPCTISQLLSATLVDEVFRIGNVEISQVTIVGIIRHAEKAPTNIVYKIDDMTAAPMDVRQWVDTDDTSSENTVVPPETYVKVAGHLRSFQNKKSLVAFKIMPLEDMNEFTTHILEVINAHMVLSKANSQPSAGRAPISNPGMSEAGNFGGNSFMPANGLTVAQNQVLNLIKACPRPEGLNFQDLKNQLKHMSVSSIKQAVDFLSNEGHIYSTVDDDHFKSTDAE
T1 sequence (P35244 whole entry, chain 3 of 3): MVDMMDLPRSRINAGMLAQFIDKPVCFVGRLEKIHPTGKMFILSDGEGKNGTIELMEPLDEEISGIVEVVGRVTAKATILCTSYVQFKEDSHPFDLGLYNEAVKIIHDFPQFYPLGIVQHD

B1: Lamin-C (amino acid residues 1-152) (domain or fragment)
chain: METPSQRRATRSGAQASSTPLSPTRITRLQEKEDLQELNDRLAVYIDRVRSLETENAGLRLRITESEEVVSREVSGIKAAYEAELGDARKTLDSVAKERARLQLELSKVREEFKELKARNTKKEGDLIAAQARLKDLEALLNSKEAALSTAL
Consider B1, for which the Kd (usually the constant that tells how readily two partners part at equilibrium) in experiment [1] was 35 µM; in experiment [2] it was 1.5 µM.
